Reference: publication PMC8008698

Biological target: SARS 2-Helix (single-chain fusion core of SARS-CoV spike protein: HR1, 22-amino acid linker, HR2) (SARS coronavirus GZ02)
Experiment: crystal structure

## SARS 2-Helix (single-chain fusion core of SARS-CoV spike protein: HR1, 22-amino acid linker, HR2) (domain or fragment)
  stoichiometry N: 3
